The record followed here is the RNAGym collection of RNA variant scans (doi:10.1093/molbev/msab373).

The labels stand for the following.
B1: Azoarcus group I ribozyme (parent)
chain: GUGCCUUGCGCCGGGAAACCACGCAAGGGAUGGUGUCAAAUUCGGCGAAACCUAAGCGCCCGCCCGGGCGUAUGGCAACGCCGAGCCAAGCUUCGGCGCCUGCGCCGAUGAAGGUGUAGAGACUAGACGGCACCCACCUAAGGCAAACGCUAUGGUGAAGGCAUAGUCCAGGGAGUGGCGAAAGUCACACAAACCGG

The variants in this data set derive from B1. Description: reverse-splicing fitness (ratio to wild type); higher = more active; in vitro selection; Mg2+ level not given. An outline of the steps: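 An in vitro group I ribozyme library with randomized positions was T7-transcribed and gel-purified. In triplicate, 10 pmol RNA in EPPS pH 7.5 was reacted with 50 pmoles of a 30-nt RNA substrate for 1 h at 37 °C across several added MgCl2 levels (1–48 mM), then stopped with EDTA. Products were reverse transcribed from a substrate-complementary primer, PCR-amplified and sequenced (HiSeq 4000). Fitness is a variant's read proportion after selection over that before, normalised to wild type.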
With GUGCCUUGCGCCGGGAAACCACGCAAGGGAUGGUGUCAAAUUCGGCGAAACCUAAGCGCCCGCCCGGGCGUAUGGCAACGCGGAGCCAAGCUUCGGCGCCUGCGCCGAUGCAGGUGUAGGGACUAGACGGCACCCACCUAAGGCGAACGAUAUGGUGAAGGCAUAGUCCAGGGAGUGGCGAAAGUCACACAAACCGG, the reverse-splicing fitness worked out at 0.00945. On to GUGCCUUGCGCCGGGAAACCACGCAAGGGAUGGUGUCAAAUUCGGCGAAACCUAAGCGCCCGCCCGGGCGUAUGGCAACGCGGAGCCAAGCUUCGGCGCCUGCGCCGAUGCAGGUGUAGGGACUAGACGGCACCCACCUAAGGCCAACGUUAUGGUGAAGGCAUAGUCCAGGGAGGGGCGAAAGUCACACAAACCGG, for which the reverse-splicing fitness is 0.00478. In the case of GUGCCUUGCGCCGGGAAACCACGCAAGGGAUGGUGUCAAAUUCGGCGAAACCUAAGCGCCCGCCCGGGCGUAUGGCAACGCGGAGCCAAGCUUCGGCGCCUGCGCCGAUGCAGGUGUAGGGACUAGACGGCACCCACCUAAGGCCAACGUUAUGGUGAAGGCAUAGUCCAGGGAGCGGCGAAAGUCACACAAACCGG, the reverse-splicing fitness came out at 0.0125.

For the variant GUGCCUUGCGCCGGGAAACCACGCAAGGGAUGGUGUCAAAUUCGGCGAAACCUAAGCGCCCGCCCGGGCGUAUGGCAACGCGGAGCCAAGCUUCGGCGCCUGCGCCGAUGCAGGUGUAGGGACUAGACGGCACCCACCUAAGGCCAACGUUAUGGUGAAGGCAUAGUCCAGGGAGAGGCGAAAGUCACACAAACCGG, the reverse-splicing fitness is 0.0103. On to GUGCCUUGCGCCGGGAAACCACGCAAGGGAUGGUGUCAAAUUCGGCGAAACCUAAGCGCCCGCCCGGGCGUAUGGCAACGCGGAGCCAAGCUUCGGCGCCUGCGCCGAUGCAGGUGUAGGGACUAGACGGCACCCACCUAAGGCCAACGCUAUGGUGAAGGCAUAGUCCAGGGAGCGGCGAAAGUCACACAAACCGG, for which the reverse-splicing fitness worked out at 0.0166.

Regarding GUGCCUUGCGCCGGGAAACCACGCAAGGGAUGGUGUCAAAUUCGGCGAAACCUAAGCGCCCGCCCGGGCGUAUGGCAACGCGGAGCCAAGCUUCGGCGCCUGCGCCGAUGCAGGUGUAGGGACUAGACGGCACCCACCUAAGGCCAACGCUAUGGUGAAGGCAUAGUCCAGGGAGAGGCGAAAGUCACACAAACCGG, the reverse-splicing fitness was 0.0152. Consider GUGCCUUGCGCCGGGAAACCACGCAAGGGAUGGUGUCAAAUUCGGCGAAACCUAAGCGCCCGCCCGGGCGUAUGGCAACGCGGAGCCAAGCUUCGGCGCCUGCGCCGAUGCAGGUGUAGGGACUAGACGGCACCCACCUAAGGCCAACGCUAUGGUGAAGGCAUAGUCCAGGGAGGGGCGAAAGUCACACAAACCGG, for which the reverse-splicing fitness turned out to be 0.00507. As for GUGCCUUGCGCCGGGAAACCACGCAAGGGAUGGUGUCAAAUUCGGCGAAACCUAAGCGCCCGCCCGGGCGUAUGGCAACGCGGAGCCAAGCUUCGGCGCCUGCGCCGAUGCAGGUGUAGGGACUAGACGGCACCCACCUAAGGCCAACGUUAUGGUGAAGGCAUAGUCUAGGGAGUGGCGAAAGUCACACAAACCGG, the reverse-splicing fitness amounted to 0.00687. As for GUGCCUUGCGCCGGGAAACCACGCAAGGGAUGGUGUCAAAUUCGGCGAAACCUAAGCGCCCGCCCGGGCGUAUGGCAACGCGGAGCCAAGCUUCGGCGCCUGCGCCGAUGCAGGUGUAGGGACUAGACGGCACCCACCUAAGGCCAACGCUAUGGUGAAGGCAUAGUCUAGGGAGAGGCGAAAGUCACACAAACCGG, the reverse-splicing fitness was 0.0164.

For the variant GUGCCUUGCGCCGGGAAACCACGCAAGGGAUGGUGUCAAAUUCGGCGAAACCUAAGCGCCCGCCCGGGCGUAUGGCAACGCGGAGCCAAGCUUCGGCGCCUGCGCCGAUGCAGGUGUAGGGACUAGACGGCACCCACCUAAGGCCAACGCUAUGGUGAAGGCAUAGUCUAGGGAGCGGCGAAAGUCACACAAACCGG, the reverse-splicing fitness was 0.0154. With GUGCCUUGCGCCGGGAAACCACGCAAGGGAUGGUGUCAAAUUCGGCGAAACCUAAGCGCCCGCCCGGGCGUAUGGCAACGCGGAGCCAAGCUUCGGCGCCUGCGCCGAUGCAGGUGUAGGGACUAGACGGCACCCACCUAAGGCCAACGCUAUGGUGAAGGCAUAGUCUAGGGAGGGGCGAAAGUCACACAAACCGG, the reverse-splicing fitness was 0.00406. As for GUGCCUUGCGCCGGGAAACCACGCAAGGGAUGGUGUCAAAUUCGGCGAAACCUAAGCGCCCGCCCGGGCGUAUGGCAACGCGGAGCCAAGCUUCGGCGCCUGCGCCGAUGCAGGUGUAGGGACUAGACGGCACCCACCUAAGGCCAACGUUAUGGUGAAGGCAUAGUCUAGGGAGGGGCGAAAGUCACACAAACCGG, the figure is 0.0048; as for GUGCCUUGCGCCGGGAAACCACGCAAGGGAUGGUGUCAAAUUCGGCGAAACCUAAGCGCCCGCCCGGGCGUAUGGCAACGCGGAGCCAAGCUUCGGCGCCUGCGCCGAUGCAGGUGUAGGGACUAGACGGCACCCACCUAAGGCCAACGUUAUGGUGAAGGCAUAGUCUAGGGAGCGGCGAAAGUCACACAAACCGG, 0.0119. Turning to GUGCCUUGCGCCGGGAAACCACGCAAGGGAUGGUGUCAAAUUCGGCGAAACCUAAGCGCCCGCCCGGGCGUAUGGCAACGCGGAGCCAAGCUUCGGCGCCUGCGCCGAUGCAGGUGUAGGGACUAGACGGCACCCACCUAAGGCCAACGUUAUGGUGAAGGCAUAGUCUAGGGAGAGGCGAAAGUCACACAAACCGG, the reverse-splicing fitness stood at 0.0147.

In the case of GUGCCUUGCGCCGGGAAACCACGCAAGGGAUGGUGUCAAAUUCGGCGAAACCUAAGCGCCCGCCCGGGCGUAUGGCAACGCGGAGCCAAGCUUCGGCGCCUGCGCCGAUGCAGGUGUAGGGACUAGACGGCACCCACCUAAGGCCAACGCUAUGGUGAAGGCAUAGUCAAGGGAGCGGCGAAAGUCACACAAACCGG, the reverse-splicing fitness was determined as 0.00939.

With GUGCCUUGCGCCGGGAAACCACGCAAGGGAUGGUGUCAAAUUCGGCGAAACCUAAGCGCCCGCCCGGGCGUAUGGCAACGCGGAGCCAAGCUUCGGCGCCUGCGCCGAUGCAGGUGUAGGGACUAGACGGCACCCACCUAAGGCCAACGCUAUGGUGAAGGCAUAGUCAAGGGAGGGGCGAAAGUCACACAAACCGG, the reverse-splicing fitness is 0.00477. For GUGCCUUGCGCCGGGAAACCACGCAAGGGAUGGUGUCAAAUUCGGCGAAACCUAAGCGCCCGCCCGGGCGUAUGGCAACGCGGAGCCAAGCUUCGGCGCCUGCGCCGAUGCAGGUGUAGGGACUAGACGGCACCCACCUAAGGCCAACGCUAUGGUGAAGGCAUAGUCAAGGGAGAGGCGAAAGUCACACAAACCGG, the reverse-splicing fitness amounted to 0.0138. Take GUGCCUUGCGCCGGGAAACCACGCAAGGGAUGGUGUCAAAUUCGGCGAAACCUAAGCGCCCGCCCGGGCGUAUGGCAACGCGGAGCCAAGCUUCGGCGCCUGCGCCGAUGCAGGUGUAGGGACUAGACGGCACCCACCUAAGGCGAACGAUAUGGUGAAGGCAUAGUCAAGGGAGCGGCGAAAGUCACACAAACCGG: the reverse-splicing fitness turned out to be 0.0198. As for GUGCCUUGCGCCGGGAAACCACGCAAGGGAUGGUGUCAAAUUCGGCGAAACCUAAGCGCCCGCCCGGGCGUAUGGCAACGCGGAGCCAAGCUUCGGCGCCUGCGCCGAUGCAGGUGUAGGGACUAGACGGCACCCACCUAAGGCGAACGAUAUGGUGAAGGCAUAGUCAAGGGAGAGGCGAAAGUCACACAAACCGG, the figure is 0.0181. Take GUGCCUUGCGCCGGGAAACCACGCAAGGGAUGGUGUCAAAUUCGGCGAAACCUAAGCGCCCGCCCGGGCGUAUGGCAACGCGGAGCCAAGCUUCGGCGCCUGCGCCGAUGCAGGUGUAGGGACUAGACGGCACCCACCUAAGGCGAACGAUAUGGUGAAGGCAUAGUCAAGGGAGGGGCGAAAGUCACACAAACCGG: the reverse-splicing fitness came to 0.00723.

For GUGCCUUGCGCCGGGAAACCACGCAAGGGAUGGUGUCAAAUUCGGCGAAACCUAAGCGCCCGCCCGGGCGUAUGGCAACGCGGAGCCAAGCUUCGGCGCCUGCGCCGAUGCAGGUGUAGGGACUAGACGGCACCCACCUAAGGCGAACGCUAUGGUGAAGGCAUAGUCCAGGGAGUGGCGAAAGUCACACAAACCGG, the reverse-splicing fitness turned out to be 0.014.

For the variant GUGCCUUGCGCCGGGAAACCACGCAAGGGAUGGUGUCAAAUUCGGCGAAACCUAAGCGCCCGCCCGGGCGUAUGGCAACGCGGAGCCAAGCUUCGGCGCCUGCGCCGAUGCAGGUGUAGGGACUAGACGGCACCCACCUAAGGCCAACGCUAUGGUGAAGGCAUAGUCGAGGGAGGGGCGAAAGUCACACAAACCGG, the reverse-splicing fitness amounted to 0.00429. Consider GUGCCUUGCGCCGGGAAACCACGCAAGGGAUGGUGUCAAAUUCGGCGAAACCUAAGCGCCCGCCCGGGCGUAUGGCAACGCGGAGCCAAGCUUCGGCGCCUGCGCCGAUGCAGGUGUAGGGACUAGACGGCACCCACCUAAGGCCAACGCUAUGGUGAAGGCAUAGUCGAGGGAGCGGCGAAAGUCACACAAACCGG, for which the reverse-splicing fitness came out at 0.0171. As for GUGCCUUGCGCCGGGAAACCACGCAAGGGAUGGUGUCAAAUUCGGCGAAACCUAAGCGCCCGCCCGGGCGUAUGGCAACGCGGAGCCAAGCUUCGGCGCCUGCGCCGAUGCAGGUGUAGGGACUAGACGGCACCCACCUAAGGCCAACGCUAUGGUGAAGGCAUAGUCGAGGGAGAGGCGAAAGUCACACAAACCGG, the figure is 0.0233; as for GUGCCUUGCGCCGGGAAACCACGCAAGGGAUGGUGUCAAAUUCGGCGAAACCUAAGCGCCCGCCCGGGCGUAUGGCAACGCGGAGCCAAGCUUCGGCGCCUGCGCCGAUGCAGGUGUAGGGACUAGACGGCACCCACCUAAGGCGAACGAUAUGGUGAAGGCAUAGUCAAGGGAGUGGCGAAAGUCACACAAACCGG, 0.0104; as for GUGCCUUGCGCCGGGAAACCACGCAAGGGAUGGUGUCAAAUUCGGCGAAACCUAAGCGCCCGCCCGGGCGUAUGGCAACGCGGAGCCAAGCUUCGGCGCCUGCGCCGAUGCAGGUGUAGGGACUAGACGGCACCCACCUAAGGCGAACGAUAUGGUGAAGGCAUAGUCGAGGGAGUGGCGAAAGUCACACAAACCGG, 0.00949. As for GUGCCUUGCGCCGGGAAACCACGCAAGGGAUGGUGUCAAAUUCGGCGAAACCUAAGCGCCCGCCCGGGCGUAUGGCAACGCGGAGCCAAGCUUCGGCGCCUGCGCCGAUGCAGGUGUAGGGACUAGACGGCACCCACCUAAGGCCAACGUUAUGGUGAAGGCAUAGUCGAGGGAGGGGCGAAAGUCACACAAACCGG, the figure is 0.00541; as for GUGCCUUGCGCCGGGAAACCACGCAAGGGAUGGUGUCAAAUUCGGCGAAACCUAAGCGCCCGCCCGGGCGUAUGGCAACGCGGAGCCAAGCUUCGGCGCCUGCGCCGAUGCAGGUGUAGGGACUAGACGGCACCCACCUAAGGCCAACGCUAUGGUGAAGGCAUAGUCUAGGGAGUGGCGAAAGUCACACAAACCGG, 0.00967.

Turning to GUGCCUUGCGCCGGGAAACCACGCAAGGGAUGGUGUCAAAUUCGGCGAAACCUAAGCGCCCGCCCGGGCGUAUGGCAACGCGGAGCCAAGCUUCGGCGCCUGCGCCGAUGCAGGUGUAGGGACUAGACGGCACCCACCUAAGGCCAACGCUAUGGUGAAGGCAUAGUCGAGGGAGUGGCGAAAGUCACACAAACCGG, the reverse-splicing fitness stood at 0.0134. As for GUGCCUUGCGCCGGGAAACCACGCAAGGGAUGGUGUCAAAUUCGGCGAAACCUAAGCGCCCGCCCGGGCGUAUGGCAACGCGGAGCCAAGCUUCGGCGCCUGCGCCGAUGCAGGUGUAGGGACUAGACGGCACCCACCUAAGGCCAACGCUAUGGUGAAGGCAUAGUCAAGGGAGUGGCGAAAGUCACACAAACCGG, the figure is 0.00807.
